According to patent US11643691B2, “Predictive biomarkers for cancer immunotherapy and methods of using same” (Duke University, priority 2018, dated 2023):

What was measured:
CD4+FoxP3+ Treg cells = assay: In vitro Treg cell assay (conditioned DCs with naive CD4+ T cells); assay type: cell-based, mice; conditions: treated DCs co-cultured with naive CD4+ T cells
Experimental: Dendritic Cell Conditioning: DCs were treated with Wnt3a (100 ng/mL), Wnt5a (200 ng/mL), LPS (1 μg/mL), 1-MT (1 mM), 2DG (1 mM), or ETO (100 μM), 2-DG(2-deoxy-d-glucose, 1 mM), Oligomycin (1 μM), succinylacetone (250 μM), or vehicle control either for 24 or 48 hrs prior to their use in both in vitro and in vivo experiments.
Treg Cell Assays: For in vivo Treg cell assays, DCs (C57, H-2b) were pre-treated for 48 hours and delivered by intradermal injection into the footpad of Foxp3-mRFP mice. Draining inguinal and popliteal lymph nodes were resected 5 days later and analyzed for CD4+Foxp3+ Treg cells. For in vitro Treg cell assays, DCs (Balb/c, H-2d) were pre-treated for either 24 or 48 hrs, and re-plated at a 1:3 DC:T-cell ratio with purified allogeneic naive Foxp3-mRFP(H-2b) CD44loCD62LhiCD4+ Tcells. These co-cultures were incubated for 6 days and quantitated for CD4+FoxP3+ Treg cells by flow cytometry.

DCs = assay: BODIPY and fatty acid uptake assay; assay type: cell-based, Murine; conditions: TF2-C12 uptake, BODIPY
Experimental: BODIPY and Fatty Acid Uptake Assay: DCs were stained in 0.5 μg/ml BODIPY 493/503 in PBS for 15 min to determine neutral lipid content (Herber et al., 2010). Fatty acid uptake measurement in DCs were performed using a dodecanoic acid fluorescent TF2-C12 fatty acid (Sigma) according to the manufacturer's protocol.

[1] = tested on: BRAF^V600EPTEN^−/− melanoma cell line; assay: Qrt-PCR of chemokines in melanoma cell line after rWnt5a; assay type: cell-based; conditions: vs vehicle ctrl
Description: (A) TCGA melanoma database gene expression association analysis of CXCL5, CXCL2, and CXCR2 with WNT5A. (B) Whole tumor tissue Western blot analysis of Wnt5a, nuclear Yap-1, CXCL5 and β-actin (loading control). Representative blot shown (n=3). (C) Plasma CXCL5 ELISA following anti-PD-1 ab therapy vs IgG isotype ctrl therapy in the transgenic BRAF^V600EPTEN^−/− melanoma model (n=5). bottom, plasma CXCL5 dot blot following anti-PD-1 ab therapy vs IgG isotype ctrl therapy in the transgenic BRAF^V600EPTEN^−/− melanoma model. Representative of 3 independent experiments. pseudo-red reflective of density. (D) Qrt-PCR analysis of Cxcl5, Cxcl2, and Cxcl1 in the BRAF^V600EPTEN^−/− melanoma cell line following treatment with recombinant Wnt5a (rWnt5a) vs vehicle ctrl (n=3). (E) Western blot analysis of Yap-1 expression in total cellular lysates (top) and nuclear lysates (middle) following treatment of BRAF^V600EPTEN^−/− melanoma cells with rWnt5a at various time points. β-actin, total lysate loading ctrl. […], nuclear lysate loading ctrl. (bottom) rWnt5a induction of CXCL5 in the absence and presence of verteporfin (YAP inhibitor) or XAV939 (β-catenin inhibitor). All representative of 3 independent experiments. […]

Akt = Akt Thr-308 phosphorylation immunoblot of DCs; assay type: cell-based, Murine; conditions: Wnt5a 200 ng/mL, 48 hrs
Description: Data is representative of 3 independent experiments. […] Data is representative of 3 independent experiments. […] Antibodies, Immunoprecipitation, and Immunoblot Analysis: Primary antibodies including CPT1A (Cell signaling), PPAR-γ (Santa Cruz Biotechnology), β-catenin, β-actin (Millipore), p-AMPK(T172)/AMPK (Cell signaling), p-AKT(T308)/Akt (Cell Signaling) were used at 1:1000. Secondary antibodies including goat anti-rabbit IgG-HRP (Millipore) and goat anti-mouse IgG-HRP (Millipore) were used at 1:5000. Cells were lysed in Laemmli sample buffer after treatment and subjected to SDS-polyacrylamide gel electrophoresis and immunoblot analysis. For immunoprecipitation, cells were lysed in radio immunoprecipitation assay (RIPA) buffer [10 mM sodium phosphate (pH 8.0), 150 mM NaCl, 1% Triton X-100, 1% sodium deoxycholate, and 0.1% SDS in the presence of 1 mM DTT, 1 mM phenylmethylsulfonylfluoride, and a protease inhibitor cocktail (Sigma)], precleared with protein A beads, and then incubated with 1 μg of antibody against β-catenin or isotype control IgG with protein A-agarose beads on a rotator overnight at 4° C. After 3 washes with RIPA buffer, immunoprecipitated complexes were eluted in sample buffer by boiling and subjected to immunoblot analysis. Immunoblots were visualized by chemiluminescence substrate (ThermoFisher) and imaged by a ChemiDoc XRSplus system (BioRad).

B1: Wnt5a: Recombinant Human/Mouse Wnt5a Protein (R&D Systems) (protein, UniProt P41221 62-380, looked up)
Protein Wnt-5a: IIGAQPLCSQLAGLSQGQKKLCHLYQDHMQYIGEGAKTGIKECQYQFRHRRWNCSTVDNTSVFGRVMQIGSRETAFTYAVSAAGVVNAMSRACREGELSTCGCSRAARPKDLPRDWLWGGCGDNIDYGYRFAKEFVDARERERIHAKGSYESARILMNLHNNEAGRRTVYNLADVACKCHGVSGSCSLKTCWLQLADFRKVGDALKEKYDSAAAMRLNSRGKLVQVNSRFNSPTTQDLVYIDPSPDYCVRNESTGSLGTQGRLCNKTSEGMDGCELMCCGRGYDQFKTVQTERCHCKFHWCCYVKCKKCTEIVDQFVCK
CD4+FoxP3+ Treg cells
  DC-mediated Treg cell differentiation in vitro: enhanced Treg cell differentiation in vitro
DCs
  DC fatty acid uptake and lipid stores: enhance DC fatty acid uptake and lipid stores
[1]
  expression of Cxcl5, Cxcl2 and Cxcl1: increased expression of Cxcl5, Cxcl2, and Cxcl1
Akt
  DC Akt Thr-308 phosphorylation: no impact
